Common to all, as to type: biochemical
Test [1] in a line: cell-free cyclolavandulylation activity screening of prenyltransferases, substrate resveratrol. The note with it: cell-free reaction with CLDS and DMAPP (CLPP donor), 28° C., 48 hours, QTOF LC/MS, with vs without prenyltransferase. From the text:
(§1) Genes encoding the following prenyltransferases were codon-optimized, synthesized, and cloned into the pET28a vector for protein expression and isolation/purification as described in Example 1. • NphB (Accession: 1ZB6_A) (SEQ ID NO: 8) • AbPT (Accession: KPI30840.1) (SEQ ID NO: 9) • SkPT (Accession: Q2L6E3.1) (SEQ ID NO: 10) • SvPT (Accession: WP_078899560.1) (SEQ ID NO: 11) • Sr1310PT (Accession: WP_057602682.1) (SEQ ID NO: 12) • NapT8 (Accession: ABS50461.1) (SEQ ID NO: 13) • NapT9 (Accession: ABS50490.1) (SEQ ID NO: 14) • Mcl23PT (Accession: AGH68908.1) (SEQ ID NO: 15) • CnqP3PT (Accession: WP_047018069.1) (SEQ ID NO: 16) • AtaWTPT (Accession: AMB20850.1) (SEQ ID NO: 17) • MzPT1 (Accession: WP_135330628.1) (SEQ ID NO: 18) • MzPT2 (Accession: WP_135330626.1) (SEQ ID NO: 19) B. Cell-Free Biosynthesis Reaction with CLPP and Various Aromatic Substrates
(§2) The cyclolavandulyl diphosphate synthase, CLDS was prepared as described in Example 1 and used in the synthesis of CLPP.
(§3) Stocks of the various aromatic compounds used as substrates for cyclolavandulylation activity screening were obtained from the following commercial sources: • Resveratrol (Fisher Scientific) 200 mM stock in DMSO • Luteolin (Fisher Scientific) 200 mM stock in DMSO • Naringenin (Fisher Scientific) 200 mM stock in DMSO • Tryptamine (Fisher Scientific) 200 mM stock in DMSO • Tryptophan (Fisher Scientific) 40 mM stock in water • Olivetolic acid (Toronto Research Chemicals) 200 mM stock in DMSO • Divarinic acid (Toronto Research Chemicals) 200 mM stock in DMSO • Phorolic acid (prepared in house) 200 mM stock in DMSO • Olivetol (Fisher Scientific) 200 mM stock in DMSO • Screening for cell-free biosynthesis was carried out as follows. 10 mM DMAPP, 5 mM MgCl2, 100 mM Tris-HCl (pH=8), and 4 mg/mL CLDS (SEQ ID NO: 4) were combined in a 6.80 mL reaction, which was incubated at 28° C. for 48 hours. This mixture was aliquoted into a 96-well plate (80 μL per well). The various prenyltransferases (18 μL, ˜1 g/L final concentration) listed above were screened across various substrates (2 μL of stock solution, variable concentration shown above), which were added to the wells and incubated at 28° C. for an additional 48 hours.
(§4) Analysis of the reaction mixture was carried out as follows: 50 μL of the reaction mixture were added to 1 mL MeOH. The resulting solution was vortexed, centrifuged at 17,200 g for 5 minutes, and transferred to an HPLC vial for analysis. HRMS-QTOF analyses of the cell free reactions was performed on an Agilent Technologies 6545 Accurate Mass QTOF LC/MS with a reverse-phase column (Agilent Infinity Lab Poroshell 120 ECC18, 2.7 μm, 3.0×50 mm) using positive ESI with 1% MeCN—H2O (0.1% FA) for 2 min followed by a linear gradient of 1-99% MeCN—H2O (0.1% FA) for 14 min with a flow rate of 0.4 mL/min.
(§5) Mass spectrometric (MS) analysis of chromatograms was carried out using MassHunter Qualitative Analysis 10.0. Targeted metabolomics using the exact m/z of the calculated proton adduct [H^+] in the presence and absence of prenyltransferase indicated the presence of cyclolavandulylated product.

A short description of test [2]: cell-free cyclolavandulylation activity screening of prenyltransferases, substrate luteolin. The note with it: cell-free reaction with CLDS and DMAPP (CLPP donor), 28° C., 48 hours, QTOF LC/MS, with vs without prenyltransferase.
Text: as §1, §2, §3, §4, §5

The nature of test [3]: cell-free cyclolavandulylation activity screening of prenyltransferases, substrate naringenin. The conditions noted are these: cell-free reaction with CLDS and DMAPP (CLPP donor), 28° C., 48 hours, QTOF LC/MS, with vs without prenyltransferase.
Text: as §1, §2, §3, §4, §5

Test [4] in a line: cell-free cyclolavandulylation activity screening of prenyltransferases, substrate tryptamine. The conditions noted are these: cell-free reaction with CLDS and DMAPP (CLPP donor), 28° C., 48 hours, QTOF LC/MS, with vs without prenyltransferase.
Text: as §1, §2, §3, §4, §5

A short description of test [5]: cell-free cyclolavandulylation activity screening of prenyltransferases, substrate tryptophan. The note with it: cell-free reaction with CLDS and DMAPP (CLPP donor), 28° C., 48 hours, QTOF LC/MS, with vs without prenyltransferase.
Text: as §1, §2, §3, §4, §5

A short description of test [6]: cell-free cyclolavandulylation activity screening of prenyltransferases, substrate olivetolic acid. The note with it: cell-free reaction with CLDS and DMAPP (CLPP donor), 28° C., 48 hours, QTOF LC/MS, with vs without prenyltransferase.
Text: as §1, §2, §3, §4, §5

The nature of test [7]: cell-free cyclolavandulylation activity screening of prenyltransferases, summary over all tested substrates. The conditions noted are these: any of the tested substrates; cell-free biosynthesis reaction with CLDS from Streptomyces sp. CL190 and DMAPP.
Text: as §1, §2, §3, §4, §5

B1: NphB: naturally occurring prenyltransferase from Streptomyces sp. CL190, Accession: 1ZB6_A, SEQ ID NO: 8 (protein, listed as Streptomyces sp.)
chain: MSEAADVERVYAAMEEAAGLLGVACARDKIYPLLSTFQDTLVEGGSVVVFSMASGRHSTELDFSISVPTSHGDPYATVVEKGLFPATGHPVDDLLADTQKHLPVSMFAIDGEVTGGFKKTYAFFPTDNMPGVAELSAIPSMPPAVAENAELFARYGLDKVQMTSMDYKKRQVNLYFSELSAQTLEAESVLALVRELGLHVPNELGLKFCKRSFSVYPTLNWETGKIDRLCFAVISNDPTLVPSSDEGDIEKFHNYATKAPYAYVGEKRTLVYGLTLSPKEEYYKLGAYYHITDVQRGLLKAFDSLED
With B1, the “presence of cyclolavandulylated product, Aromatic Compound (Substrate) Resveratrol” value (shortened to “presence … (Substrate) Resveratrol”) in test [1] is listed as “No”. Moreover, the “presence of cyclolavandulylated product, Aromatic Compound (Substrate) Luteolin” value (“presence … (Substrate) Luteolin” for short) in test [2] was “No”. For the same molecule, in test [3], the “presence of cyclolavandulylated product, Aromatic Compound (Substrate) Naringenin” value (“presence … (Substrate) Naringenin” for short) is recorded as “Yes”. For the same molecule, the “presence of cyclolavandulylated product, Aromatic Compound (Substrate) Tryptamine” value (shortened to “presence … (Substrate) Tryptamine”) in test [4] is listed as “No”. In addition, the “presence of cyclolavandulylated product, Aromatic Compound (Substrate) Tryptophan” value (“presence … (Substrate) Tryptophan” below) in test [5] is “Yes”. Besides, the “presence of cyclolavandulylated product, Aromatic Compound (Substrate) Olivetolic Acid” value (from here on “presence … (Substrate) Olivetolic Acid”) in test [6] was “No”. Further, the “cyclolavandulylation activity with tested aromatic compounds (summary of Table 7)” value (“cyclolavandulylation activity” below) in test [7] was “produced a cyclolavandulylated aromatic compound”.

B2: AbPT: prenyltransferase, Accession: KPI30840.1, SEQ ID NO: 9 (protein, listed as Actinomyces sp.)
chain: MSGKANIQRVYSAVEEAADLLDIACSREQMWPTLTAFEDVLTDGAIVFNMVTSGGRIGDLSFDFTLPPSAGDPYELALAHGLVDETDHPVRALFSDIQARFPLQAYGVDHGITSGFHKTYAFFPLGDLQSVAELADIPSMPSGLSEHVTSFAAYGLDDKVSAIAIDYARRTWNVYFNGLSAPHVQRTAVLSMLSEFGLPEPSAQLLEFIETSSALYPTFGWDSSKIERISFSTRTTDPVALPARIEPKLEKFARSAPHVYEGERVLVYAGALSPSEEYYKLATYYQMTAAAHDRVRSAN
With B2, in test [1], the “presence … (Substrate) Resveratrol” value was “No”. Moreover, the “presence … (Substrate) Luteolin” value in test [2] is reported as “No”. Further, the “presence … (Substrate) Naringenin” value in test [3] was “No”. In addition, the “presence … (Substrate) Tryptamine” value in test [4] is listed as “No”. For the same molecule, the “presence … (Substrate) Tryptophan” value in test [5] is “Yes”. Besides, the “presence … (Substrate) Olivetolic Acid” value in test [6] was “No”. The “cyclolavandulylation activity” value in test [7] is reported as “produced a cyclolavandulylated aromatic compound”.

B3: MzPT1: prenyltransferase, Accession: WP_135330628.1, SEQ ID NO: 18 (protein, listed as Streptomyces sp.)
chain: MSRTAEVERVYSAIEEAAGLLSAVCSRDNVWPVLDAFGDELAEAMIVFGGQAGDRHAGELDYSFTVPSSIGNPYPHALSRGLVTETDHPVGSVLSDIQGRWPIKEHFVDAGVVGGFKKLYAHFPDNMQKVSDIADIPSMPRAVAENAALFARYGLDQVAMIGVDYRHKTVSVYFHFGPDGRPEPSTIRALLSDLGMPEPDEPTLEFAHKSLRVNITLGWETGDVIRVAFAPPPVRGLDPSALPGQLTPRMEEFARVSPRAYAGGRVNMYAVKWMRGEEFHEVCTYYQLTPWYEKILTDAPKEQQG
Consider B3, for which the “presence … (Substrate) Resveratrol” value in test [1] is recorded as “No”. The “presence … (Substrate) Luteolin” value in test [2] is listed as “No”. In addition, in test [3], the “presence … (Substrate) Naringenin” value is given as “No”. Also, in test [4], the “presence … (Substrate) Tryptamine” value was “No”. Further, the “presence … (Substrate) Tryptophan” value in test [5] is reported as “No”. The “presence … (Substrate) Olivetolic Acid” value in test [6] is on record as “Yes”. Further, the “cyclolavandulylation activity” value in test [7] is “produced a cyclolavandulylated aromatic compound”.

B4: NapT9: prenyltransferase, Accession: ABS50490.1, SEQ ID NO: 14 (protein, listed as Streptomyces sp.)
chain: MSGATGAEKLYSAIEESARMVDAPFSRDKVWPTLSAFEGGFSDAGGVILSLQAGTHVPEMEYSAQVSPGISDPYARALASGILTETDHPVSTVLAEIVSLAPTSEHYIDCGIVGGFKKIYANFPHDQQTVAALAGLPSMPRAVGGNAEFFARHGLDRVALIGVDYVNKTINLYFQVSAATAGNLDQKTVSAMLHETGMSEPSDAMVAYACQAYRIYTTLSWDAQEILRIAFAPKPRRGIDPADLPARLEPRIEKFLRATPHKYPGALINATAAKWSPEREVLDLAAHYQVSAVQMKAIEAEEGQAS
For B4, the “presence … (Substrate) Resveratrol” value in test [1] was “No”. Also, in test [2], the “presence … (Substrate) Luteolin” value is “Yes”. Also, the “presence … (Substrate) Naringenin” value in test [3] is reported as “No”. Also, the “presence … (Substrate) Tryptamine” value in test [4] is “No”. In addition, the “presence … (Substrate) Tryptophan” value in test [5] is on record as “No”. The “presence … (Substrate) Olivetolic Acid” value in test [6] is recorded as “No”. Further, the “cyclolavandulylation activity” value in test [7] was “produced a cyclolavandulylated aromatic compound”.

B5: MzPT2: prenyltransferase, Accession: WP_135330626.1, SEQ ID NO: 19 (protein, listed as Streptomyces sp.)
chain: MSGTAVEKLYSAIEETAGLLDVTCSRDKVWPVLASFEDAIPQAAILFRVATDKRHAGELNLHFMMLPGDVDPYALALSNDLMAKTEHPVGSLLSDIAERFPVESYGIDFGVVKGFQKTWSCFPGNSMQSLSKLAEVPSVPSSLAGNLDFFSRYGLDENVTLVGIDFEHRTMNVYFGEVAELLEPDAVKSMLRDLEMPEPSEQLLNFAKQSFGFYATLSWDSPRIERFCYAAIAPDPMALLDQVEPKIEHFLKTVPYGVDDPKAVYAATSPNDGEFYKIQSYYQWRPRLVNHMHTSVSDSGE
Turning to B5, the “presence … (Substrate) Resveratrol” value in test [1] was “No”. Besides, in test [2], the “presence … (Substrate) Luteolin” value is listed as “No”. Further, in test [3], the “presence … (Substrate) Naringenin” value is “No”. The “presence … (Substrate) Tryptamine” value in test [4] was “No”. Also, the “presence … (Substrate) Tryptophan” value in test [5] is “No”. The “presence … (Substrate) Olivetolic Acid” value in test [6] was “No”.

B6: AtaWTPT: prenyltransferase, Accession: AMB20850.1, SEQ ID NO: 17 (protein, listed as Aspergillus terreus)
chain: MLPPSDSKDPRPWQILSQALGFPNYDQELWWQNTAETLNRVLEQCDYSVHLQYKYLAFYHKYILPSLGPFRRPGVEPEYISGLSHGGHPLEISVKIDKSKTICRLGLQAIGPLAGTARDPLNSFGDRELLKNLATLLPHVDLRLFDHFNAQVGLDRAQCAVATTKLIKESHNIVCTSLDLKDGEVIPKVYFSTIPKGLVTETPLFDLTFAAIEQMEVYHKDAPLRTALSSLKDFLRPRVPTDASITPPLTGLIGVDCIDPMLSRLKVYLATFRMDLSLIRDYWTLGGLLTDAGTMKGLEMVETLAKTLKLGDEACETLDAERLPFGINYAMKPGTAELAPPQIYFPLLGINDGFIADALVEFFQYMGWEDQANRYKDELKAKFPNVDISQTKNVHRWLGVAYSETKGPSMNIYYDVVAGNVARV
Take B6: the “presence … (Substrate) Resveratrol” value in test [1] was “Yes”. In addition, the “presence … (Substrate) Luteolin” value in test [2] is given as “No”. Besides, the “presence … (Substrate) Naringenin” value in test [3] is given as “Yes”. For the same molecule, the “presence … (Substrate) Tryptamine” value in test [4] is “No”. Besides, in test [5], the “presence … (Substrate) Tryptophan” value is recorded as “Yes”. Besides, in test [6], the “presence … (Substrate) Olivetolic Acid” value is “No”. The “cyclolavandulylation activity” value in test [7] is listed as “produced a cyclolavandulylated aromatic compound”.

These data come from patent US20250043319A1, “BIOSYNTHESIS OF CYCLOLAVANDULYL DERIVATIVES OF AROMATIC COMPOUNDS” (Invizyne Technologies, Inc., priority 2022, published 2025).
